Results published in the DeepSol protein solubility set.

Assay: soluble on expression in E. coli; label from the status in PepcDB or PDB records

Sequence | soluble on expression in E. coli
MILFDKNKRILKKYAKMVSKINQIESDLRSKKNSELIRLSMVLKEKVNSFEDADEHLFEAFALVREAARRTLGMRPFDVQVMGGIALHEGKVAEMKTGEGKTLAATMPIYLNALIGKGVHLVTVNDYLARRDALWMGPVYLFLGLRVGVINSLGKSYEVVWKNPDLARKAIEENWSVWPDGFNGEVLKEESMNKEAVEAFQVELKEITRKEAYLCDVTYGTNNEFGFDYLRDNLVLDYNDKVQRGHFYAIVDEADSVLIDEARTPLIISGPSKESPSVYRRFAQIAKKFVKDKDFTVDEKARTIILTEEGVAKAEKIIGVENLYDPGNVSLLYHLINALKALHLFKKDVDYVVMNGEVIIVDEFTGRLLPGRRYSGGLHQAIEAKEGVPIKEESITYATITFQNYFRMYEKLAGMTGTAKTEESEFVQVYGMEVVVIPTHKPMIRKDHDDLVFRTQKEKYEKIVEEIEKRYKKGQPVLVGTTSIEKSELLSSMLKKKGIPHQVLNAKYHEKEAEIVAKAGQKGMVTIATNMAGRGTDIKLGPGVAELGGLCIIGTERHESRRIDNQLRGRAGRQGDPGESIFFLSLEDDLLRIFGSEQIGKVMNILKIEEGQPIQHPMLSKLIENIQKKVEGINFSIRKTLMEMDDVLDKQRRAVYSLRDQILLEKDYDEYLKDIFEDVVSTRVEEFCSGKNWDIESLKNSLSFFPAGLFDLDEKQFSSSEELHDYLFNRLWEEYQRKKQEIGEDYRKVIRFLMLRIIDDHWRRYLEEVEHVKEAVQLRSYGQKDPIVEFKKETYYMFDEMMRRINDTIANYVLRVVKVSEKDEKEAKEELGKIRLVHEEFNLVNRAMRRATEKKKKKDGLHSFGRIRVKR | soluble
MILIFEEHRMQLSSEQCDFFFTNGYLVINNFFSESVCDLLKQRIETLLENNQAEIPKTIFSTQTNEHAKKQYFLDSGDKIHYFFEPGAFDEAGDWLRPFNQSINKIGHALHELDPVFRQYSRDDRIKKIAHQLGLKTLGLVQSMYIFKQPGIGAEVLCHQDSTYIFGEDSDALGFWFAIEDATLENGCLEVIPSPCTTPLKQRMFRRENEIYFENFDSSPWPEENSVPLPVKKGALIILHGRVPHKSQANFSNQSRHAYTLHLVDISLPYPEKNWLQWPNGIPCLLEHHHHHH | soluble
MILIRLEPGMDLMEEMRAAFSEGVVVTGIGSLHRVRIRTADESELTVEGPLEILSLQGTISPDGVHIHIAVADSEGRVTGGHLRGDSPVRTTAEIAVIPYQGVLRRVMDRRTGYRELLVLE | not soluble
MILLLAGTSDARELAVMIQQAGYNVTATVVTDHAAEQLRSAGIRAYVGRLDASQLADLAKAEGAKAIVDASHPFAEEASKNAMQAAADAGLPYIRYERQASSFSSEKVTFVDSYEEAADLAAEKGGVVMLTTGSKTIDIFAARLIGRPDVKVIARMLPRKDNLDKCERLGFSQEQIVMMQGPFTKELDRALYRHFGVTVVVTKESGKVGFVDEKIAAAEELGIDVIVIRRPRLSYGIVHHDFAGVLDALKQHAPLPTV | not soluble
MILNKKKLYFETQAFTDKLINEISINMSKRKELINCYDIEAYVKETENIDFFDYPFKKQSKKLIWGSVTKIGDVTMVATAQHLKIEIKNFTKMHEIIHHYFDYTTDMPNNEKSFDTLLIKKGYLPEDYPKEFRANKGAGMLLINKKALKYAFSTYDDLEKMASFFNVNDIVLKIRILDELIYSHNLSYKQANLIYNSYYFQQQTQLKEILLK | not soluble
MILNNESNKKKKFEQFFIMTYPKVKAFAWKLLKSEEDAEDIAQDIFAKLWTNPEIWENQETWNSYIYTMVRNHIYNFLKHKSIRQTYQEQCTKEEPAISETDIHDQLYAKESELLIKLTIANMPEQRRKIFRMSRTQEKSNQEIADELNISIRTVERHIYLALIDLKKVLLTLFFFYLG | not soluble
MILQELPDLEELFLCLNDYETVSCPSICCHSLKLLHITDNNLQDWTEIRKLGVMFPSLDTLVLANNHLNAIEEPDDSLARLFPNLRSISLHKSGLQSWEDIDKLNSFPKLEEVRLLGIPLLQPYTTEERRKLVIARLPSVSKLNGSVVTDGEREDSERFFIRYYVDVPQEEVPFRYHELITKYGKLEPLAEVDLRPQSSAKVEVHFNDQVEEMSIRLDQTVAELKKQLKTLVQLPTSNMLLYYFDHEAPFGPEEMKYSSRALHSFGIRDGDKIYVESKTK | soluble
MILRRPSQADKEAILDMMGEFEREKSVHDGGFWNADNFIYEEWLEENLQSEAGLNIPENWVPAIQLVSFNESGHALGFLHLRLRLNGRLLEKGGHIGYSIRPSERGKGYAKESLRQGLQVAKEKNIQRALVTCSTENPASRAVILANGGQLEDICNETERYWIDLE | not soluble
MIMDLASLRAQQIELASSVIREDRLDKDPPDLIAGADVGFEQGGEVTRAAMVLLKYPSLELVEYKVARIATTMPYIPGFLSFREYPALLAAWEMLSQKPDLVFVDGHGISHPRRLGVASHFGLLVDVPTIGVAKKRLCGKFEPLSSEPGALAPLMDKGEQLAWVWRSKARCNPLFIATGHRVSVDSALAWVQRCMKGYRLPEPTRWADAVASERPAFVRYTANQPLEHHHHHH | soluble
MIMKVGIMSDTHDNLSAIRLAVEFFNREGVNLVLHAGDFVAPFVAKELSNLKAPLKGVFGNNDGEREGLREKLGIKDDILTLNLDGLKVVMLHGTDERVVEAFAKSQLYDIVIRGHTHKYGIQEVGRTIVVNPGEVCGYLTGIKSVALLNTTEREVRIINLKTGEILGIISLLEHHHHHH | not soluble
MIMLIKKLLETTAAAEEKARQLAEMETDEAWAVYLAEAERQRKLWQYVHYLVAGANADGRAEREQSKAGAPRCDLLQAMAAAEWEKAMLCQNVCQSLNGAAKQAVDAVFRQALRYSGQFLAMAYDERARQTAD | not soluble
MINHECINQPYGRILKFSRVQAKEMLTADELKENFAKNGQTLAQWARENGFKPRDVYLVIGGQRKGNYGKGHEIAKKLGLK | not soluble
MINKDEEVANRFSDPSKKLVEYVTDFSDMRDEDIELTKPIYENYGNFQLLNETGIIRTDEEIKELYNCKGEFGSTDEVTDMSF | not soluble
MIPDFQTLMLPLLKCVSDGQEHKYRDIIEHLAAEFEVTDEERKELLASGSKAVFDNRVGWARTYLKKAGLLDSPKRAILIISDLGREILSKNPPKIDTKYLRRFPAFIEFQNGYRNDGETEEESITEKIHEQTPEEVLDKAYQRIRKSLASELLNKVIDLSPAFFERLVVELLVKMGYGGSIKDAGKALGKSGDEGIDGTIKEDKLGLDIIYIQAKRWRPGNVVGRPELQKFVGALAGQGAKKGIFITTSNFTKEALTYTPRNETKIVLIDGEQLTQLMIDYNLGCTTQQTYELKKLDSDYFGEE | not soluble
MIPLPSGTKIWLVAGITDMRNGFNGLAAKVQTTLKDDPMSGHVFIFRGRNGSQVKLLWSTGDGLCLLTKRLERGRFAWPSARDGKVFLTPAQLAMLLEGIDWRQPKRLLTSLTML | not soluble
MIQDIKRSSAPAAPAPVTVLKMWPNEMRSQSLEENLDAKLEQFKKEHSPVKERGNCSKTRKISENQPPPSFEVVMAKIRGIQESLKNMEDQMNEEERGKEMPDSTENSFDFSKIWQYFDQTRIEEIRALLKKRQFPDSP | not soluble
MIQIEDVVVSFDVLREKFLCNLDACKGECCIEGDAGAPVELDEVEKLEEVLPIIWEELSPEARAVIEKQGVVYTDQEGDLVTSIVNNKDCVFTCYDEKGCCYCAIEKAYRDGKTDFYKPVSCHLYPIRIGDYGPYKAVNYHRWDVCKAAVLLGKKENVAVYQFLKEPLIRKFGEKWYQELEVAVKELKAHDMI | not soluble
MIRDYKSKLEFLAFYDELTGLPNKNSLIRWLNLKVSQMDCIDTYLIFLEVRDLEKLNVTYGYDLVDELIIHISKRIKDIAGEGNKAFKIGFDRFAIICKSENISDFIERMLSQLLLPYNVNGNLIRVNFNIGAAQIENSNEAAANLMRRCDLALIKAKEEGLNEYVIFKPSIELEHHHHHH | not soluble
MIRFCLQCLKTKKACICEWITPITTDIELIILQHPTEAKRPLGTAKILSLSLVNCRTFIGENFSEHSELNQLLADDSYHHQVLFLDNESKAIGTDKALLQKKQRVILLDGTWKKAYKMWQLSTNLHSLPKVHLNTDLSGNYRVRKAPKDNALSTAEAGYHILTQLDNDCVASNNVEKFDSILTAFDNMIEFHISQMPEGVFEKNYRSLEHHHHHH | soluble
MISKHSSRLPIWVLSPREEQQARKNLKTETYKKCANFVQAMADCAKANGMKVFPTCDKQRDEMKSCLLFYQTDEKYLDGERDKIVLEKINKLEKLCQKQSSTK | not soluble
MISPSKKRTILSSKNINQKPRAVVKGNELRSPSKRRSQIDTDYALRRSPIKTIQISKAAQFMLYEETAEERNIAVHRHNEIYNNNNSVSNENNPSQVKENLSPAKICPYERAFLREGGRIALKDLSVDEFKGYIQDPLTDETIPLTLPLGDKKISLPSFITPPRNSKISIFFTSKHQGQNPETKISRSTDDVSEKKVVRKLSFHVYEDE | not soluble
MISTPPVARNIMRCMSDQLKLDQQICFQLYTGSRLMQRMYRVYFDQWGITYSQYLVLLLLWEKDRQTISELSDPLDLDSGTLSPLLRRMEANGFITREHEQSDYRKVVVCLTTRGRRLKTKAKKMNDELNDMLGFDDADLAAVTRVLEKINPSAAI | not soluble
MISVDTMTNASSTEGISLHHISVSDLDNNCYLLTTESDEGTQGLLIDAADNAPALLDLAESAGARITAVVTTHRHFDHVRALEDVLDTTKATHFASLGDSPRLPRSADTTLGEGDTLRWAGHNLRAHILRGHTQEGLALSIKIDGIYHLFVGDSLFPRGVGKTSTPEEFNQLLSDVKTRLFDVYPDTAVVHPGHGKPTTLGTERPHLEQWRQRGW | not soluble
MITDCCPGFGSVAKYIAVSMLEASFDVASMAKTSTKVFILEVMGRHAGWIAAAGGLASNEDHEVPIIILFPEVTFDQEKFLAKTDHYVKEYGYCTVVVSEGVKGTDGKFLSDQGLRDAFGHAQLGGVAPVIANIVKNGLGLEHHHHHH | soluble
MITGETEPACVEDASQLAEQRNGAPVMEAGCAAVPVEANATKRGYWRQRTLHSWFIGRKPQRTCIAVDIDEVLAFFVPELCAFHNKRYGTRLQATDFHSYRFAEVWGGTDTDAIRKVHEFFRTPAFQELQPIPGAKQVLQSRLARFRFVVVTSRQLVIEQETRAWLDKHFSGIFEAIYLGNQWALHPNGEHGTGVGSAAQEPQRLFANRRRKSQVCKACGAAVLIDDLPHNLLDCSENGVFGVLFDFQGQYGWSKSPAFESKDIAVVHSWEAVGELLDRL | not soluble
MITIKKQEIVKLEDVLHLYQAVGWTNYTHQTEMLEQALSHSLVIYLALDGDAVVGLIRLVGDGFSSVFVQDLIVLPSYQRQGIGSSLMKEALGNFKEAYQVQLATEETEKNVGFYRSMGFEILSTYDCTGMIWINREK | soluble
MITKDVKEQLIQVSGPENFDDSNAGRLVYSYDATPQYQSMPDAVIAPRNTDEISRILTICSEHRVPIVPRGSGTNLCGGTCPTEGGLVLLFKHMNQILEIDEENLTATVQPGVITLDMIRAVESKGLFYPPDPSSMKISTIGGNINENSGGLRGLKYGVTRDYVIGLEVVLANGDIIRTGGKLAKDVAGYDLTRLFVGSEGTLGIVTEAIVKLVPKPETKKTLLALYENIDAAAQTVSDIIAAKIIPATLEFLDQPTLLVIEDYAKIGLPTSAKAVLLIEQDGPFETVERDMEKIEAICKKGDAVSVQTAQTEEEAFALTEARRSALSALARLKPTTILEDATVPRSEIANMVKAINDIAAKYDISICTFGHAGDGNLHPTCTTDIRNKDEMERVEQAFAEIFEKAIELGGTITGEHGVGEMKAPYLEMKLKKEGIDAMKALKAAFDPRNILNPGKMFAKDARKR | not soluble
